Results as given in the supplement of paper PMC10567573.

B1: PKD2L1 (parent)
chain: VFIFYYVVEEILELHIHRLRYLSS

Variants of: B1
Assay: protein stability index of a GFP-peptide fusion (GPS, HEK-293T) (PSI 1-6); higher = more stable
Conditions: c terminus: a fixed tail appended
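Further: lentivirally expressed fusions sorted by FACS into six bins by GFP to DsRed ratio, PSI derived from sequencing read proportions per bin multiplied by bin number.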

Variant	protein stability index
VFIFYYVVEEILELHIHVLRYLSS [R18V]	1.65
VFIFYYVVEEILELHIHQLRYLSS [R18Q]	2.37
VFIFYYVVEEILELHIHKLRYLSS [R18K]	2.64
VFIFYYVVEEILELHIHLLRYLSS [R18L]	3.78
VFIFYYVVEEILELHIHELRYLSS [R18E]	2.76
VFIFYYVVEEILELHIHCLRYLSS [R18C]	2.63
VFIFYYVVEEILELHIHHLRYLSS [R18H]	1.63
VFIFYYVVEEILELHIHMLRYLSS [R18M]	3.01
VFIFYYVVEEILELHIHRLRYNSS [L22N]	1.32
VFIFYYVVEEILELHIHRLRYCSS [L22C]	3.65
VFIFYYVVEEILELHIHRLRYFSS [L22F]	3.34
VFIFYYVVEEILELHIHRLRYISS [L22I]	3.59
VFIFYYVVEEILELHIHRLRYKSS [L22K]	3.19
VFIFYYVVEEILELHIHRLRYTSS [L22T]	3.77
VFIFYYVVEEILELHIHRLRYPSS [L22P]	4.59
VFIFYYVVEEILELHIHRLRYGSS [L22G]	2.34
VFIFYYVVEEILELHIHRLRYESS [L22E]	2.43
VFIFYYVVEEILELHIHRLRYLNS [S23N]	1.82
VFIFYYVVEEILELHIHRLRYLRS [S23R]	4.53
VFIFYYVVEEILELHIHRLRYLES [S23E]	2.12
VFIFYYVVEEILELHIHRLRYLIS [S23I]	4
VFIFYYVVEEILELHIHRLRYLTS [S23T]	3.81
VFIFYYVVEEILELHIHRLRYLYS [S23Y]	2.19
VFIFYYVVEEILELHIHRLRYLCS [S23C]	1.99

Variant	protein stability index
VFIFYYVVEEILELHIHRLRYLFS [S23F]	2.05
VFIFYYVVEEILELHIHRLRYLVS [S23V]	3.04
VFIFYYVVEEILELHIHRLRYLQS [S23Q]	3.46
VFIFYYVVEEILELHIKRLRYLSS [H17K]	2.13
VFIFYYVVEEILELHIARLRYLSS [H17A]	2.18
VFIFYYVVEEILELHIERLRYLSS [H17E]	1.77
VFIFYYVVEEILELHIDRLRYLSS [H17D]	3
VFIFYYVVEEILELHIIRLRYLSS [H17I]	2.97
VFIFYYVVEEILELHIPRLRYLSS [H17P]	2.54
VFIFYYVVEEILELHIFRLRYLSS [H17F]	2.87
VFIFYYVVEEILELHIQRLRYLSS [H17Q]	4.68
VFIFYYVVEEILELHIVRLRYLSS [H17V]	4.2
VFIFYYVVEEILELHISRLRYLSS [H17S]	3.69
VFIFYYVVEEILELHIGRLRYLSS [H17G]	4.03
VFIFYYVVEEILELHIMRLRYLSS [H17M]	3.93
VFIFYYVVEEILELHIYRLRYLSS [H17Y]	2.69
VFIFYYVVEEILELHILRLRYLSS [H17L]	2.14
VFIFYYVVEEILELHIHRLRDLSS [Y21D]	1.89
VFIFYYVVEEILELHIHRLRKLSS [Y21K]	2.84
VFIFYYVVEEILELHIHRLRTLSS [Y21T]	3.04
VFIFYYVVEEILELHIHRLRGLSS [Y21G]	3.65
VFIFYYVVEEILELHIHRLRELSS [Y21E]	2.27
VFIFYYVVEEILELHIHRLRVLSS [Y21V]	3.28
VFIFYYVVEEILELHIHRLRMLSS [Y21M]	4.01

Variant	protein stability index
VFIFYYVVEEILELHIHRLRFLSS [Y21F]	3.66
VFIFYYVVEEILELHIHRLRLLSS [Y21L]	2.06
VFIFYYVVEEILELHIHRLRQLSS [Y21Q]	3.68
VFIFYYVVEEILELHIHRLRHLSS [Y21H]	2.96
VFIFYYVVEEILELHIHRLRNLSS [Y21N]	1.61
VFIFYYVVEEILELHIHRLRPLSS [Y21P]	3.02
VFIFYYVVEEILELHIHRLRRLSS [Y21R]	1.55
VFIFYYVVEEILELHEHRLRYLSS [I16E]	2.46
VFIFYYVVEEILELHYHRLRYLSS [I16Y]	2.18
VFIFYYVVEEILELHKHRLRYLSS [I16K]	2.34
VFIFYYVVEEILELHGHRLRYLSS [I16G]	3.3
VFIFYYVVEEILELHRHRLRYLSS [I16R]	2.6
VFIFYYVVEEILELHMHRLRYLSS [I16M]	2.9
VFIFYYVVEEILELHLHRLRYLSS [I16L]	2.92
VFIFYYVVEEILELHDHRLRYLSS [I16D]	3.73
VFIFYYVVEEILELHNHRLRYLSS [I16N]	3.35
VFIFYYVVEEILELHWHRLRYLSS [I16W]	3.5
VFIFYYVVEEILELHFHRLRYLSS [I16F]	3.25
VFIFYYVVEEILELHCHRLRYLSS [I16C]	3.5
VFIFYYVVEEILELHSHRLRYLSS [I16S]	3.37
VFIFYYVVEEILELHAHRLRYLSS [I16A]	2.11
VFIFYYVVEEILELHIHRLRYLSF [S24F]	2.37
VFIFYYVVEEILELHIHRLRYLSE [S24E]	2.21
VFIFYYVVEEILELHIHRLRYLST [S24T]	2.47

Variant	protein stability index
VFIFYYVVEEILELHIHRLRYLSN [S24N]	3.95
VFIFYYVVEEILELHIHRLRYLSP [S24P]	2.94
VFIFYYVVEEILELHIHRLRYLSK [S24K]	1.12
VFIFYYVVEEILELHIHRLRYLSH [S24H]	3.15
VFIFYYVVEEILELHIHRLRYLSL [S24L]	2.58
VFIFYYVVEEILELTIHRLRYLSS [H15T]	2.71
VFIFYYVVEEILELCIHRLRYLSS [H15C]	2.86
VFIFYYVVEEILELMIHRLRYLSS [H15M]	3.1
VFIFYYVVEEILELRIHRLRYLSS [H15R]	2.97
VFIFYYVVEEILELYIHRLRYLSS [H15Y]	3.19
VFIFYYVVEEILELNIHRLRYLSS [H15N]	3.63
VFIFYYVVEEILELVIHRLRYLSS [H15V]	2.21
VFIFYYVVEEILELPIHRLRYLSS [H15P]	3.51
VFIFYYVVEEILELDIHRLRYLSS [H15D]	2.24
VFIFYYVVEEILELWIHRLRYLSS [H15W]	2.13
VFIFYYVVEEILHLHIHRLRYLSS [E13H]	3.19
VFIFYYVVEEILYLHIHRLRYLSS [E13Y]	1.93
VFIFYYVVEEILKLHIHRLRYLSS [E13K]	2.36
VFIFYYVVEEILRLHIHRLRYLSS [E13R]	3.68
VFIFYYVVEEILWLHIHRLRYLSS [E13W]	3.26
VFIFYYVVEEILLLHIHRLRYLSS [E13L]	3.25
VFIFYYVVEEILPLHIHRLRYLSS [E13P]	2.44
